Data: patent publication US10889805B2, “Intestinal epithelioid cells” (National Institutes of Biomedical Innovation, Health and …, priority 2015, dated 2021)

Columns and labels:
ANPEP = ANPEP expression by quantitative real-time RT-PCR in cells differentiating from human iPS cells to enterocyte-like cells; format: cell-based; conditions: compound added with BIO and DAPT, 5 days culture; versus control without the compounds; FIG. 2B
Method: (§1) The definitive endoderm cells generated from the human iPS cell line (Tic) by the method described in Example 1 above were further cultured for 15 days using the medium 3. During a period from day 4 to day 19 after the initiation of differentiation induction, BIO (5 μM) and DAPT (10 μM) were added to the culture system. Simultaneously with the addition of the BIO and the DAPT, the cells were further cultured for 5 days using the medium 3 supplemented with any one of phorbol-myristate-acetate (PMA), transforming growth factor β1 (TGEβ1), Wortmannin, Noggin, SB431542, Follistatin, EGF, R-spondin1, Pentagastrin, or Wnt3a (FIG. 2A and FIG. 3A).
(§2) With regard to the measurement of the enterocyte markers ANPEP and VILLIN, each of the enterocyte markers was measured by a quantitative real-time RT-PCR method using SYBR Green gene expression assays (APPLIED BIOSYSTEMS). […] Thus, high expressions of ANPEP and VILLIN were found when the cells were cultured in the system containing SB431542, EGF, or Wnt3a.
(§3) The quantitative real-time RT-PCR was performed by the following method. […] A quantitative real-time RT-PCR method using SYBR Green gene expression assays (APPLIED BIOSYSTEMS) was performed, and quantification was performed with STEPONEPLUS real-time PCR System (APPLIED BIOSYSTEMS).

VILLIN = VILLIN expression by quantitative real-time RT-PCR in cells differentiating from human iPS cells to enterocyte-like cells; format: cell-based; conditions: compound added with BIO and DAPT, 5 days culture; versus control without the compounds; FIG. 3B
Method: as §1, §2, §3

B1: Wnt3a (protein, UniProt P56704 19-352, looked up)
Protein Wnt-3a: SYPIWWSLAVGPQYSSLGSQPILCASIPGLVPKQLRFCRNYVEIMPSVAEGIKIGIQECQHQFRGRRWNCTTVHDSLAIFGPVLDKATRESAFVHAIASAGVAFAVTRSCAEGTAAICGCSSRHQGSPGKGWKWGGCSEDIEFGGMVSREFADARENRPDARSAMNRHNNEAGRQAIASHMHLKCKCHGLSGSCEVKTCWWSQPDFRAIGDFLKDKYDSASEMVVEKHRESRGWVETLRPRYTYFKVPTERDLVYYEASPNFCEPNPETGSFGTRDRTCNVSSHGIDGCDLLCCGRGHNARAERRREKCRCVFHWCCYVSCQECTRVYDVHTCK
notes: humoral factor added to the culture system
expression of ANPEP (ANPEP): high value
expression of VILLIN (VILLIN): high value
